Source: the nanobody polyreactivity screen of Harvey et al. (2022)

Assay: yeast display, Sf9 membrane polyspecificity reagent, FACS + sequencing; frameworks hold sequencing errors
Procedure, shortened: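 A synthetic nanobody library was expressed on Saccharomyces cerevisiae BJ5465 by galactose induction for 36–48 hours. The library was stained for 1 hour at 4 °C with 10% biotinylated, detergent-solubilized Sf9 membrane reagent and enriched with streptavidin microbeads before FACS. Low and high (top ~1%) gates were set on anti-HA fluorescence for expression and streptavidin fluorescence for reagent binding, and each polyreactivity label reflects the gate of origin.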

Sequence: QVQLVESGGGLVQAGGSLRLSCAASGRIYARNAMGWYIQAPGKERELVAAITRGGSTYYADSVKGRFTISRDNAKNTVYLQMNSLKPEDTAVYYCAASYRGSTYKYYYWGQGTQVTVSS
- polyreactivity (PSR sort gate): high polyreactivity

Sequence: QVQLVESGGGLVHAGGSLRLSCAASGSILNGYVMGWYRQAPGKERELVGTYYADSVKGRFTISRDNAKNTVYLQMNSLKPEDTAVYYCAADIGDGSEFDYWGLGTQVTVSS
- polyreactivity (PSR sort gate): low polyreactivity

Sequence: QVQLVESGGGLVQAGGSLRLSCAASGSILSYYAMGWYRQAPGKERELVAAISSTGSTNYADSVKGRFTISRDNAKNTLYLQMNSLKPEDTAVYYCATDGDPYADEGGYWGQGTQVTVSS
- polyreactivity (PSR sort gate): high polyreactivity

Sequence: QVQLVESGGGLVQAGGRLRLSCAASGFIFSNYAMGWYRQAPGKERELVAAISKSGGGTSYADSVKGRFTISRDTAMNTVYLQMNSLKPEDPAGYYCAARVRQIRVDYWGQGTQVTVSS
- polyreactivity (PSR sort gate): high polyreactivity

Sequence: QVQLVESGGGLVQAGGSLRLSCAASGFTLRYYAMGWSRQAPVKERELVATIKRSGASTYYADSVKGRFTISRDNSKNTVYLQMNSLKPEDTAVYYCNTATSRAYRYDYWGQGTQVTVSS
- polyreactivity (PSR sort gate): high polyreactivity

Sequence: QLQLVESGGGLVQAGGSLRLTCAASGSIFEVKAMGWYRQAPGTERELVATITYSGGSTYYADSVKGRFTISRDNAKKTVYFQMNSLKPEDTAVYYCATHYVVWELYIYDYWGQGTQVTVSS
- polyreactivity (PSR sort gate): low polyreactivity

Sequence: QVQLVESGGGLVQAGGSLRLSCAASGSTFFIYAMGWYRQAPGKERELVAAISGSGGTTYYADSVKGRFTISRDNAKNTVYLQMNSLKPEDTAVYYCAARTFSAFWRGGYDYWGQGTQVTVSS
- polyreactivity (PSR sort gate): low polyreactivity

Sequence: QVQLVESGGGLVQAGGSLRLSCAASGSIFSANAMGWYRQAPGKERELVASITGDGSTNYADSVKGRFTISRDNAKNTVYLQMNSLKPEDTAVYYCAADIGSWYDYWGQGTQVTVSS
- polyreactivity (PSR sort gate): low polyreactivity

Sequence: QVQLVESGGGLVQAGGSLRLSCAASGRTFLGNAMGWYRQAPGKERELVAAIRYSGGRTYYADSVKGRFTISRDNAKNTVYLQMNSLKPEDTAVYYCAKDRRYYKAYDYWGQGTQVTVSS
- polyreactivity (PSR sort gate): low polyreactivity

Sequence: QDQLVESGGGLVQAGGSLRLSCAASGRTFVHYVMGWYRQAPGKERELVAAITSSGGSTYADSVKGRFTISRDNAKNTVYLQMNSLKPEDTAVYYCAADYLDGVGDVEHDYWGQGTQVTVSS
- polyreactivity (PSR sort gate): low polyreactivity

Sequence: QVQLVESGGGLVQAGGSLRLSCAASGSTFVYYAMGWYRQAPGKERELVAAITASGGRTYYADSVKGRFTISRDNAKNTVYLQMNSLKPEDTAVYYCNTVRPHGMDYWGQGTQVTVSS
- polyreactivity (PSR sort gate): high polyreactivity

Sequence: QVQLVESGGGLVQAGGSLRLSCAASGRIFNYNAMGWYRQAPGKERELVATITYSDATTYYADSVKGRFTISRDNAKITVYLQMNSLKPEDTAVYYCNAPSRSYDRYISAGRRYDYWGQGTQVTVSS
- polyreactivity (PSR sort gate): low polyreactivity

Sequence: QVQLVESGGVLVQAGGSLRLSSAAYGFIFAKYAMVWYIQAHGKERELVAGISESCGSTYYADSVKGRFTISRDNAKNTVYLQLNSLKPEDTAVYYCNADDTVYFIKAGDYWGQGTQGTVSS
- polyreactivity (PSR sort gate): high polyreactivity

Sequence: QVQLVESGGGLVQAGGSLRLSCAASGRIFPGNTMGWYRQAPGKERELVAAITRGGSTSYADSVKGRFTISRDNAKNTVYLQMNSLKPEDTAVYYCATRTHGEGTRRDSWGQGTQVTVSS
- polyreactivity (PSR sort gate): low polyreactivity

Sequence: QVQLVESGGGLVQAGGSLRLSCAASGFTFTINAMGWYRQAPGKERELVAAINWRGGSTYYADSVKGRFTISRDNAKNTVYLQMNSLKPEDTAVYYCNAVASIYSYAYPPYWGREHLNYWGQGTQVTVSS
- polyreactivity (PSR sort gate): low polyreactivity

Sequence: QVQLVESGGGLVQAGGSLRLSCAASGSIFATYAMGWYIQAPGKERELVASITTDGSTHYADSVKGRFTISRDNAKNTVYLQMNSLKPEDTAVYYCNTETGPSPVPVYDTEFDSWGQGTQVTVSS
- polyreactivity (PSR sort gate): low polyreactivity

Sequence: QVQLVESGGGLVQAGGSLRLSCAASGFTFARYAMGWYRQAPGKEREFVAAIDKSGGSTYYADSVKGRFTISRDNAKNTVYLQMNSLKPEDTAVYYCAAVYSSYGRRYNSWGQGTQVTVSS
- polyreactivity (PSR sort gate): high polyreactivity

Sequence: QVKLVESGGGLVQAGGSLRLSCAASGLTFDHNVMGWYRPAPGKERELVAAISRSGSSTYYADSVKGRFTISRDNAKNTVYLQMNSLKPEDTAVYYCAAARSRYSYATGFDYWGQGTQVTVSS
- polyreactivity (PSR sort gate): high polyreactivity

Sequence: QVQLVESGGGLVQAGGSLRLSCAASGRTYAYYAMGWYRQAPGKERELVAAITRGTDTHYADSVKGRFTISRDNAKNTVYLQMNSLKPEDTAVYYCAADLSQDFDYWGQGTQVTVSS
- polyreactivity (PSR sort gate): low polyreactivity

Sequence: QVQLVESGGGLLQAGGSLRLSCAASGSIFRYYAKGWYRQAPGKERELVAAISYSGGRTYYADSVKGRFTISRDNAKNTVYLQMNSLKPEDTAVYYCNAGAGKRGYDYWGQGTQVTVSS
- polyreactivity (PSR sort gate): low polyreactivity

Sequence: QVQLEESGGGLVQAGGSLRLSCAASGSTFPPYEMGWYRQAPGKERELVAAISGSGGSTNYADSVKGRFTISRDHAKNTVYLQMNSLKPEDNAVYRDYWGQGTQVTVSS
- polyreactivity (PSR sort gate): low polyreactivity

Sequence: QVQLVESGGGLVQAGGSLRLSCAASGIIFRQYAMGWYRQAPGKERELVAGISSRGGSTYYADSVKGRFTISRDNAKNTVYLQMNSLKPEDTAVYYCAARYPGYFYHLDYWGQGTQVTVSS
- polyreactivity (PSR sort gate): low polyreactivity

Sequence: QVQLVESGGGLVQAGGSLRLSCAASGSNFENYAMGWYRQAPGKERELVAAISSNGGSTYYADSVKGRFTLSRDKAKNTVYLQKNSLKPEDTAVYYCNKGRYYRQIYDYWGQGTQVTVSS
- polyreactivity (PSR sort gate): high polyreactivity

Sequence: QVQLVESGGGLVQAGGSLRLSCAASGIIFYDYAMGWYRQAPGKERELVAAISKRGGSTYYADSVKGRFTISRDNAKNTVYLQMNSLKPEDTAVYYCAAKYYRYGDPDRYDYWGQGTQVTVSS
- polyreactivity (PSR sort gate): high polyreactivity

Sequence: QVQLVESGGGLVQAGGSLRLSCAASGSTFKPYAMGWYRQAPGKERELVAAITWTGGSTYYADSVKGRFTISRDNAKNTVYLEMNSLKPDDTAVYYCNAYLRWYITLLRYLAGGDYWGQGTQVTVSS
- polyreactivity (PSR sort gate): high polyreactivity

Sequence: QVQLVESGGGLVQAGGSLRLSCAASGRTFNHYAMGLYRQAPGKERELVAGITISGGSTYYADSVKGRFTISRDNAKNTVYLQMNSLKPEDTAVYYCNAVYEYYRHSKWTMDYWGQGTQVTVSS
- polyreactivity (PSR sort gate): low polyreactivity

Sequence: QVQLVESGGGLVQAGGSLRLSCAASGRIFSVYARGWYRQAPGKERELVAAITWTGGRTYYADSVKGRFTISRDNAKNTVYLQMNSLKPEDTAVYYCAAQWVRSYQMYWGQGTQVTVSS
- polyreactivity (PSR sort gate): high polyreactivity

Sequence: QVQHVESGGGLVQAGGSHRLSCAASGRTFDTNDMGWYRQPPGKERELVAVITARGGNTSYADSVKGRFTISRDNAKNPVYLQMNSLKPEDTAVYYCAAESQSTSYGLDYWGQGTQVTVSS
- polyreactivity (PSR sort gate): low polyreactivity

Sequence: QVQLVESRGGLVQAGGSLRLSCSASGLTIWRYAMGWYRHEPGKEWEFVATISQNGGRTYYADSVKGRFTISRDNAKNTVYLQMNSLKPEDTAVYYCAADDWRWGYDYWGQGTQVTVSS
- polyreactivity (PSR sort gate): high polyreactivity

Sequence: QVQLVESGGGLVQAGGSLRLSCAASGSTFATYAMGWYRQAPGKERELVAAITRSGGITYYADSVKGRFTISRDNAKNTVYLQMNSLKPEDNAVYYCAKQYKWYGSRFYYWGQGTQVTVSS
- polyreactivity (PSR sort gate): high polyreactivity

Sequence: QVQLVESGGGLFQSGGSLRLSCAASGITFRYYAMGWYRQAPGKERELVAAISSGGSTNYADSVKGRFTISRDNAKNSVYLQINSLKPEDTAVYYCYRRVYSRRYYGYYYWGQGTQVTVSS
- polyreactivity (PSR sort gate): high polyreactivity

Sequence: QVQLVESGGGLVQAGGSLRLSCAASGITIQGYAMGWYRQAPGKERELVAAINDSGSSTYYADSVKGRFTISRDNAKNTFYLQMNSLKPEYTAVYYCAAYLWLWGQGTQVTVSS
- polyreactivity (PSR sort gate): low polyreactivity

Sequence: QVQLVESGGGLVQAGGSLRFSCAASGSIFWSNAMGWYRQAPGKERELVAAITTSDGSTYYADSVKGRFTISRDNAKNTVYLQMNSLKPEDTAVYYCAADTYYVSYGYYYWGQGTQVTVSS
- polyreactivity (PSR sort gate): low polyreactivity

Sequence: QVQLVESGGGLVQAGGSLRLSCAASGSTFAGHAMGWSRQAPGKERELVAAITFSGGRTDYADSVKGRFTISRDNAKNTVYLQMNSLIPEDTAVYYCAAPADDTVHYQNYYWGQGTQVTVSS
- polyreactivity (PSR sort gate): low polyreactivity

Sequence: QVQLVESGGGLVQAGGSLRLSCAASGRTFRRYAMGWYRQAPGKERELVAAITWGAGSTRYADSVKGRFTISRDNAKNTVYLQMNSLKPEDTAVYYCAAENTRAYGMYYWGQGTQVTVSS
- polyreactivity (PSR sort gate): high polyreactivity

Sequence: QVQLVESGGGLVQAGGSLRLSCAASGINFFGKYAMGWYRQAPGKERELVAAISWSGGRTYYADSVKWRFTISRDNAKNTVYLQMNSLKPEDTAVYYCAVYPRDAERYGYCGQGTQVTVSS
- polyreactivity (PSR sort gate): high polyreactivity

Sequence: QVQLVESGGGLVQAGGSLRLSCAASGFIFATYTMGWYRQAPGKERELVAAITWRGGSTYYADTVKGRFPISRDNAKNTVYLQMNSLKPEDTAVYYCAAQDVNSYRYVEDVYCGQGTQVTVSS
- polyreactivity (PSR sort gate): low polyreactivity

Sequence: QVQLVESGGGLVQAGGSLRLSCAASGFTFTYYTMGWYRQATGKERELVAGISRSGGSTYYADSVKGRFTISRDYAKNTVYLQMNSLKPVDTAVYYCAAGSIQYRPTYTGDYWGQGTQVTVSS
- polyreactivity (PSR sort gate): high polyreactivity

Sequence: QGQLVESGGGLVQAGGSLRLSCAASGISFSFYAMGWYRQAPGKERELVADITLSGGRTYYADSVKGRFTISRDNAKNTVYLQMNSLKPEDTAVYYCNADTYERVDYWGQGTQVTVSS
- polyreactivity (PSR sort gate): high polyreactivity

Sequence: QVQLQVSGGGLVQAGGSLRLSCEASGSIFLTSEMGWYRQAPGIERELVAAIATGTSTNYADSVKGRFTISRDNAKNTVYLQMNSLKPEDTAVYYCATYHYWGQGTQVTVSS
- polyreactivity (PSR sort gate): low polyreactivity

Sequence: QVQLVESGGGLVQAGGSLRLSCAASGRIFSRYAMGGYRQAPGTERELVAAINNGGSTYYADSVKGRFTISRDNAKNTVYLQMNSLKPEDTAVYYCAKLWWSNFKPVEYWGQGTQVTVSS
- polyreactivity (PSR sort gate): low polyreactivity

Sequence: QVQLVESGGGLVQAGGSLRLSCAASGFTFNGYAMGWYRQAPGKERELVAGITRRGGITYYADSVKGRFTISRDNAKNTVYLQMNSLNPEDTAVYYCNAYPRYIIPSIVNGYNYWGQGTQVTVSS
- polyreactivity (PSR sort gate): high polyreactivity

Sequence: QVQLVESGGGLVQSGGSLRLSCAASGRTFFKYSMGWYRQAPGKEREMVATITSSGGITYADSVKGRFTISRDNAKNSVYLQMNSLKPEDTAVYYCNARVWVTHYSELNYWGQGTQVTVSS
- polyreactivity (PSR sort gate): low polyreactivity
